Results: PMC7610778 (Science (New York, N.Y.), 2020)
Blank lines part the entries; values can stand above or below the binder they belong to.

What was measured:
mCherry-Atg11 = molecular target: T1, mCherry-Atg11 (yeast (S. cerevisiae), UniProt Q12527 1-1178); experiment: pull-down
T1 sequence: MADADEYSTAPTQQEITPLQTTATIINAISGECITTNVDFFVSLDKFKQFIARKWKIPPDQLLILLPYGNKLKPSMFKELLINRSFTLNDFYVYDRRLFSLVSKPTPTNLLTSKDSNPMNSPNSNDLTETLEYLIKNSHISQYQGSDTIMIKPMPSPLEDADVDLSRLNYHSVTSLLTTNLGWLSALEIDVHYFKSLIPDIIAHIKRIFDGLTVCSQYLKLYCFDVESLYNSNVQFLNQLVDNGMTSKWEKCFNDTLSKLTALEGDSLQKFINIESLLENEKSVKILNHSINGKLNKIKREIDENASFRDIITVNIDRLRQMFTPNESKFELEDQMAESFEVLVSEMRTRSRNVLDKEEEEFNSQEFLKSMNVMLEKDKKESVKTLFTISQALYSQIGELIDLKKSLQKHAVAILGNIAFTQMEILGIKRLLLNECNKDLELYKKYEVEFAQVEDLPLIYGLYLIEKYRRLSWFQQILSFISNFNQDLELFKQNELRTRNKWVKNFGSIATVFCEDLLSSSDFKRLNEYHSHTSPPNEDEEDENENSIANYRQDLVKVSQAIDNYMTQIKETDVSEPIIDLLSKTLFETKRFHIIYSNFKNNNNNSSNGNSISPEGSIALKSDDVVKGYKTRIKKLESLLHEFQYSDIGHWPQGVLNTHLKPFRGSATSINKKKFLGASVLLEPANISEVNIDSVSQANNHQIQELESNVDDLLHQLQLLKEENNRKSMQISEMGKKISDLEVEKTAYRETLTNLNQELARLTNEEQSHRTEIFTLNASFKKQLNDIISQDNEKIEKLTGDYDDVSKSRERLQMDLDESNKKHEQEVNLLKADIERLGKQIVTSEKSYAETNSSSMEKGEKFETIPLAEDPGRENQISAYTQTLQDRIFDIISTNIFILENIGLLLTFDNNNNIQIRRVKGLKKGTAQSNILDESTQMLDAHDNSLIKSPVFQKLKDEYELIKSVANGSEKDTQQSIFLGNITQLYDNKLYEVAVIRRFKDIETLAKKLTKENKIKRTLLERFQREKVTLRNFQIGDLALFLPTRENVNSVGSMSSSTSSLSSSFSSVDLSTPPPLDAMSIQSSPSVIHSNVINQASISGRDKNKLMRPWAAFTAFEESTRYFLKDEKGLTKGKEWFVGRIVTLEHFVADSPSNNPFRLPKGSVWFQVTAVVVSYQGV

[1] = molecular target: T2, Atg12–Atg5-Atg16-mCherry complex (yeast (S. cerevisiae), UniProt P38316;Q12380;Q03818, Atg12–Atg5 conjugate | Atg12–Atg5 conjugate); experiment: membrane recruitment to GUVs imaged by microscopy
T2 sequence 1: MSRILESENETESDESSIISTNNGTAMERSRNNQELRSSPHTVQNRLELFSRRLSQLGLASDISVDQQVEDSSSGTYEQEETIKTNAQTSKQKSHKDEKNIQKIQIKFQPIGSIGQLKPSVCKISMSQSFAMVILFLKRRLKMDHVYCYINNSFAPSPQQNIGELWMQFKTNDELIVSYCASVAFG
T2 sequence 2: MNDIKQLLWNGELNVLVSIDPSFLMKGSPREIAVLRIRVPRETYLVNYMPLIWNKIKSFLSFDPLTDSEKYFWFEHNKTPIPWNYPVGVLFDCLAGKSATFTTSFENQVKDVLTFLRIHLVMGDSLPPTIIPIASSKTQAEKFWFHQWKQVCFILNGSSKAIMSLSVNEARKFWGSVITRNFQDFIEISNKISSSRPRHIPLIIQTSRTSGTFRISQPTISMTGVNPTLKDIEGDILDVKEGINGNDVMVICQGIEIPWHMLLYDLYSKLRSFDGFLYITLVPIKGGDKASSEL
T2 sequence 3: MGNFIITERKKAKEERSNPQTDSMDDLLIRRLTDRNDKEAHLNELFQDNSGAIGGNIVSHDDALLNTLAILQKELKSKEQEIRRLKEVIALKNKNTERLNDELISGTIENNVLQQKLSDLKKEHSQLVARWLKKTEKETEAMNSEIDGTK

Atg2-Atg18-CBP complex = Atg2-Atg18-CBP complex (yeast (S. cerevisiae), UniProt P53855;P43601); experiment: pull-down
Sequence of Atg2-Atg18-CBP complex (P53855 whole entry, chain 1 of 2): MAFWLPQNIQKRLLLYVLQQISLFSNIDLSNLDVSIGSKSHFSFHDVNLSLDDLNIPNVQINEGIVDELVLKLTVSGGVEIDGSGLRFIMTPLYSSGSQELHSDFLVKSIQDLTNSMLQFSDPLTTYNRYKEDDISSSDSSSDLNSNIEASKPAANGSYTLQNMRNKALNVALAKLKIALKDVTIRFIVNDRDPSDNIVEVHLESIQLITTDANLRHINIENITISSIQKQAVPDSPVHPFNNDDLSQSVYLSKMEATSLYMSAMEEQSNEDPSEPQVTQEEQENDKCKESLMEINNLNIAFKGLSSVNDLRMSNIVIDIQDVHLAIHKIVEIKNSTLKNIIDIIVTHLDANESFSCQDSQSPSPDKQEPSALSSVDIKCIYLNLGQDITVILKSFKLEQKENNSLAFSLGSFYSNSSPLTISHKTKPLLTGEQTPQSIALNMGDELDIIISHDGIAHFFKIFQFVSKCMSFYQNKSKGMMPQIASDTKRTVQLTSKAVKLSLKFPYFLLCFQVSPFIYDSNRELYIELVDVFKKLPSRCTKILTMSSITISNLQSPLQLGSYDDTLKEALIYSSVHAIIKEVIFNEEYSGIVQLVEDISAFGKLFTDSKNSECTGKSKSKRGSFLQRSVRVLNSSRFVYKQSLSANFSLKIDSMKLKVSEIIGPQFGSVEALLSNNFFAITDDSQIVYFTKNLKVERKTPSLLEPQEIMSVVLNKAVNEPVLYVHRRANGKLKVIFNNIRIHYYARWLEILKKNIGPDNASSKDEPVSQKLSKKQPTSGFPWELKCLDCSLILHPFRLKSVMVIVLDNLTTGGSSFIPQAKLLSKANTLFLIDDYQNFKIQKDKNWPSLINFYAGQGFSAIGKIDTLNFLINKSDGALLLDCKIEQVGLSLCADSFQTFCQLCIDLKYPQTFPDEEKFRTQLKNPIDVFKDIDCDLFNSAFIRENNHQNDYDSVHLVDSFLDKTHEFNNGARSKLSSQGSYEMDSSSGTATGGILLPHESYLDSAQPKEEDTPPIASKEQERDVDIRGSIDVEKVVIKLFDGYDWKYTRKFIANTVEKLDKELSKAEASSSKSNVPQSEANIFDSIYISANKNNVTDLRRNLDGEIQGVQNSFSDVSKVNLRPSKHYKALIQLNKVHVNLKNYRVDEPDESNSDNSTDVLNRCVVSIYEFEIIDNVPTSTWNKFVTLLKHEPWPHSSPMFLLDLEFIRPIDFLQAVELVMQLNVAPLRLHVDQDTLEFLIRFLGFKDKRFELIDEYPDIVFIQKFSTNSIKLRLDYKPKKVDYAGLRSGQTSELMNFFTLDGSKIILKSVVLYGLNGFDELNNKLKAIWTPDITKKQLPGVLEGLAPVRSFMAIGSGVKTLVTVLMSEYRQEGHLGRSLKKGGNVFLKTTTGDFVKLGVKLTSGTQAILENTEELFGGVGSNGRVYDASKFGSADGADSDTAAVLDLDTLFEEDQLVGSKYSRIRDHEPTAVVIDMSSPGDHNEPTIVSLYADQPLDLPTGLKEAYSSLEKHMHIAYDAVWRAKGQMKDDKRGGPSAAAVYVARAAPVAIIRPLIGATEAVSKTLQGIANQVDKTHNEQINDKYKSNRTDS
Sequence of Atg2-Atg18-CBP complex (P43601 whole entry, chain 2 of 2): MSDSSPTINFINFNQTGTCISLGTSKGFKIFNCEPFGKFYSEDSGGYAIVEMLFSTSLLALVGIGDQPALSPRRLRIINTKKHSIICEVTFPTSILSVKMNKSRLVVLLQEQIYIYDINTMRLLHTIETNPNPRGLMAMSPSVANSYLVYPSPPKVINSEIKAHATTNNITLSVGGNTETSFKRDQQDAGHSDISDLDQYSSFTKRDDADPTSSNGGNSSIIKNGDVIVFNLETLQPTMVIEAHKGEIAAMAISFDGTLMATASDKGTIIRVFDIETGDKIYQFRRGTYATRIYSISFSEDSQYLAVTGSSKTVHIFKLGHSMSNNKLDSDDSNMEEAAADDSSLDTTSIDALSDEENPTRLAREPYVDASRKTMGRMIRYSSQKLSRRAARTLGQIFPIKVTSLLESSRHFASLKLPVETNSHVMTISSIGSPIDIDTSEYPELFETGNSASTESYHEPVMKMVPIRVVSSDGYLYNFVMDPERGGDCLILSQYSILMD

Atg2-mEGFP = Atg2-mEGFP (yeast (S. cerevisiae), UniProt P53855 1-1592); experiment: pull-down
Sequence of Atg2-mEGFP (P53855 whole entry): as the sequence (P53855 whole entry, chain 1 of 2) above

[2] = molecular target: the molecule itself

binding result (mCherry-Atg11): binds
B1: Atg9-EGFP in proteoliposomes (Atg9 PLs) (natural protein)
chain: MERDEYQLPNSHGKNTFLSRIFGLQSDEVNPSLNSQEMSNFPLPDIERGSSLLHSTNDSREDVDENDLRVPESDQGTSTEEEDEVDEEQVQAYAPQISDGLDGDHQLNSVTSKENVLETEKSNLERLVEGSTDDSVPKVGQLSSEEEEDNEFINNDGFDDDTPLFQKSKIHEFSSKKSNTIEDGKRPLFFRHILQNNRPQRDTQKLFTSSNAIHHDKDKSANNGPRNINGNQKHGTKYFGSATQPRFTGSPLNNTNRFTKLFPLRKPNLLSNISVLNNTPEDRINTLSVKERALWKWANVENLDIFLQDVYNYYLGNGFYCIILEKILNICTLLFVVFVSTYMGHCVDYSKLPTSHRVSDIIIDKCYSNSITGFTKFFLWMFYFFVILKIVQLYFDVQKLSELQNFYKYLLNISDDELQTLPWQNVIQQLMYLKDQNAMTANVVEVKAKNRIDAHDVANRIMRRENYLIALYNSDILNLSLPIPLFRTNVLTKTLEWNINLCVMGFVFNESGFIKQSILKPSQREFTREELQKRFMLAGFLNIILAPFLVTYFVLLYFFRYFNEYKTSPGSIGARQYTPIAEWKFREYNELYHIFKKRISLSTTLANKYVDQFPKEKTNLFLKFVSFICGSFVAILAFLTVFDPENFLNFEITSDRSVIFYITILGAIWSVSRNTITQEYHVFDPEETLKELYEYTHYLPKEWEGRYHKEEIKLEFCKLYNLRIVILLRELTSLMITPFVLWFSLPSSAGRIVDFFRENSEYVDGLGYVCKYAMFNMKNIDGEDTHSMDEDSLTKKIAVNGSHTLNSKRRSKFTAEDHSDKDLANNKMLQSYVYFMDDYSNSENLTGKYQLPAKKGYPNNEGDSFLNNKYSWRKQFQPGQKPELFRIGKHALGPGHNISPAIYSTRNPGKNWDNNNNGDDIKNGTNNATAKNDDNNGNNDHEYVLTESFLDSGAFPNHDVIDHNKMLNSNYNGNGILNKGGVLGLVKEYYKKSDVGR

binding result (mCherry-Atg11): binds
B2: Atg19-3D (S390D, S391D, S396D) (natural protein)
chain: MNNSKTNQQMNTSMGYPLTVYDECNKFQLIVPTLDANIMLWCIGQLSLLNDSNGCKHLFWQPNDKSNVRILLNNYDYGHLFKYLQCQRKCSVYIGEGTLKKYNLTISTSFDNFLDLTPSEEKESLCREDAHEDPVSPKAGSEEEISPNSTSNVVVSRECLDNFMKQLLKLEESLNKLELEQKVTNKEPNHRISGTIDIPEDRSELVNFFTELKTVKQLEDVFQRYHDYERLSQECDSKTEIASDHSKKETKIEVEPPNERSLQITMNQRDNSLYFQLFNNTNSVLAGNCKLKFTDAGDKPTTQIIDMGPHEIGIKEYKEYRYFPYALDLEAGSTIEIENQYGEVIFLGKYGSSPMINLRPPSRLSAESLQASQEPFYSFQIDTLPELDDDDIISTDISLSYDGDDNEKALTWEEL

binding result [1]: binds
B3: Atg21 (natural protein)
chain: MKVLQFNQDATCCVVAASSHQISIFNCDPFGKCFEIDTKNSKKKTSNNNGSASNSESRNNEESILITNGSRDRTDAEEEEDNEDNALVTGNILKEGEFVIEMLFSTSLIAIADRGQGLNKGKKLKIVNTKRKCTICEIVFPHEIVDVVMNRKRMCVLLESDQIFIYDISCMKPLETIDLWEDHYKRSQANSFSNASNTGTLEGDSANLNRVATNLLANATQKSVNGSNPSVRTRRNSLRSKIRPRMVLSNDDRSILCFTAYSSPKKNKPNSEALYDVVIYDTLNVTPVNYLNSVHKGNVACLAVSHDGKLLATASDKGTIIRVFHTGVDSDYMSSRSLFKEFRRGTRLCNLYQLAFDKSMTMIGCVGDTDTIHLFKLDDASNSLPGDNSSNGHWNEEEYILASNSNPSMGTPKEIPLSKPRIANYFSKKIKSSIPNQNLSRNFAYITVNESNRSCLGFPDEFPNQVYIASDDGTFSIYSIPSKPGECVLTKNNKFT

binding result (Atg2-Atg18-CBP complex): binds
B4: Atg12–Atg5-Atg16-GFP complex (complex)
chain 1: MSRILESENETESDESSIISTNNGTAMERSRNNQELRSSPHTVQNRLELFSRRLSQLGLASDISVDQQVEDSSSGTYEQEETIKTNAQTSKQKSHKDEKNIQKIQIKFQPIGSIGQLKPSVCKISMSQSFAMVILFLKRRLKMDHVYCYINNSFAPSPQQNIGELWMQFKTNDELIVSYCASVAFG
chain 2: MNDIKQLLWNGELNVLVSIDPSFLMKGSPREIAVLRIRVPRETYLVNYMPLIWNKIKSFLSFDPLTDSEKYFWFEHNKTPIPWNYPVGVLFDCLAGKSATFTTSFENQVKDVLTFLRIHLVMGDSLPPTIIPIASSKTQAEKFWFHQWKQVCFILNGSSKAIMSLSVNEARKFWGSVITRNFQDFIEISNKISSSRPRHIPLIIQTSRTSGTFRISQPTISMTGVNPTLKDIEGDILDVKEGINGNDVMVICQGIEIPWHMLLYDLYSKLRSFDGFLYITLVPIKGGDKASSEL
chain 3: MGNFIITERKKAKEERSNPQTDSMDDLLIRRLTDRNDKEAHLNELFQDNSGAIGGNIVSHDDALLNTLAILQKELKSKEQEIRRLKEVIALKNKNTERLNDELISGTIENNVLQQKLSDLKKEHSQLVARWLKKTEKETEAMNSEIDGTK
modifications: Atg12–Atg5 conjugate | Atg12–Atg5 conjugate

binding result (Atg2-mEGFP): binds
B5: Atg5-mCherry-Atg16(1-46) (complex)
chain 1: MNDIKQLLWNGELNVLVSIDPSFLMKGSPREIAVLRIRVPRETYLVNYMPLIWNKIKSFLSFDPLTDSEKYFWFEHNKTPIPWNYPVGVLFDCLAGKSATFTTSFENQVKDVLTFLRIHLVMGDSLPPTIIPIASSKTQAEKFWFHQWKQVCFILNGSSKAIMSLSVNEARKFWGSVITRNFQDFIEISNKISSSRPRHIPLIIQTSRTSGTFRISQPTISMTGVNPTLKDIEGDILDVKEGINGNDVMVICQGIEIPWHMLLYDLYSKLRSFDGFLYITLVPIKGGDKASSEL
chain 2: MGNFIITERKKAKEERSNPQTDSMDDLLIRRLTDRNDKEAHLNELF

B6: Atg11 (full length; fluorescent tag of this experiment not told) (natural protein)
chain: MADADEYSTAPTQQEITPLQTTATIINAISGECITTNVDFFVSLDKFKQFIARKWKIPPDQLLILLPYGNKLKPSMFKELLINRSFTLNDFYVYDRRLFSLVSKPTPTNLLTSKDSNPMNSPNSNDLTETLEYLIKNSHISQYQGSDTIMIKPMPSPLEDADVDLSRLNYHSVTSLLTTNLGWLSALEIDVHYFKSLIPDIIAHIKRIFDGLTVCSQYLKLYCFDVESLYNSNVQFLNQLVDNGMTSKWEKCFNDTLSKLTALEGDSLQKFINIESLLENEKSVKILNHSINGKLNKIKREIDENASFRDIITVNIDRLRQMFTPNESKFELEDQMAESFEVLVSEMRTRSRNVLDKEEEEFNSQEFLKSMNVMLEKDKKESVKTLFTISQALYSQIGELIDLKKSLQKHAVAILGNIAFTQMEILGIKRLLLNECNKDLELYKKYEVEFAQVEDLPLIYGLYLIEKYRRLSWFQQILSFISNFNQDLELFKQNELRTRNKWVKNFGSIATVFCEDLLSSSDFKRLNEYHSHTSPPNEDEEDENENSIANYRQDLVKVSQAIDNYMTQIKETDVSEPIIDLLSKTLFETKRFHIIYSNFKNNNNNSSNGNSISPEGSIALKSDDVVKGYKTRIKKLESLLHEFQYSDIGHWPQGVLNTHLKPFRGSATSINKKKFLGASVLLEPANISEVNIDSVSQANNHQIQELESNVDDLLHQLQLLKEENNRKSMQISEMGKKISDLEVEKTAYRETLTNLNQELARLTNEEQSHRTEIFTLNASFKKQLNDIISQDNEKIEKLTGDYDDVSKSRERLQMDLDESNKKHEQEVNLLKADIERLGKQIVTSEKSYAETNSSSMEKGEKFETIPLAEDPGRENQISAYTQTLQDRIFDIISTNIFILENIGLLLTFDNNNNIQIRRVKGLKKGTAQSNILDESTQMLDAHDNSLIKSPVFQKLKDEYELIKSVANGSEKDTQQSIFLGNITQLYDNKLYEVAVIRRFKDIETLAKKLTKENKIKRTLLERFQREKVTLRNFQIGDLALFLPTRENVNSVGSMSSSTSSLSSSFSSVDLSTPPPLDAMSIQSSPSVIHSNVINQASISGRDKNKLMRPWAAFTAFEESTRYFLKDEKGLTKGKEWFVGRIVTLEHFVADSPSNNPFRLPKGSVWFQVTAVVVSYQGV
stoichiometry N [2]: 2
